Source: the Immune Epitope Database (IEDB)

How the values were obtained:
Test in all cases: IEDB peptide-MHC binding, purified MHC/competitive/radioactivity; ≥ and ≤ were set here for values at or beyond the usual limits of such assays
HLA-A*02:02 = molecular target: HLA-A*02:02
HLA-A*02:03 = molecular target: HLA-A*02:03
HLA-A*02:06 = molecular target: HLA-A*02:06
HLA-A*68:02 = molecular target: HLA-A*68:02
HLA-A*02:01 = molecular target: HLA-A*02:01
[1] = source organism: Vaccinia virus WR
[2] = source organism: Mammarenavirus juninense
[3] = source organism: Mammarenavirus choriomeningitidis
[4] = source organism: Hepacivirus hominis

SISEINEWL
IC50 (HLA-A*02:02; [1]): 0.13 nM | IC50 (HLA-A*02:03; [1]): 1.8 nM | IC50 (HLA-A*02:06; [1]): 6.3 nM | IC50 (HLA-A*68:02; [1]): 1.3 nM | IC50 (HLA-A*02:01; [1]): 1.9 nM

SAFNDDGIYI
IC50 (HLA-A*02:02; [1]): 35 nM | IC50 (HLA-A*02:03; [1]): 68 nM | IC50 (HLA-A*02:06; [1]): 41 nM | IC50 (HLA-A*68:02; [1]): 6.6 nM | IC50 (HLA-A*02:01; [1]): 35 nM

FLIVAALVFL
IC50 (HLA-A*02:02; source organism: SARS-CoV1): 3 nM | IC50 (HLA-A*02:03; source organism: SARS-CoV1): 162 nM | IC50 (HLA-A*02:06; source organism: SARS-CoV1): 3.6 nM | IC50 (HLA-A*68:02; source organism: SARS-CoV1): 1090 nM | IC50 (HLA-A*02:01; source organism: SARS-CoV1): 11 nM

IVDTVSALV
IC50 (HLA-A*02:02; source organism: SARS-CoV1): 17 nM | IC50 (HLA-A*02:03; source organism: SARS-CoV1): 528 nM | IC50 (HLA-A*02:06; source organism: SARS-CoV1): 43 nM | IC50 (HLA-A*68:02; source organism: SARS-CoV1): 301 nM | IC50 (HLA-A*02:01; source organism: SARS-CoV1): 58 nM

YLLFNHFSV
IC50 (HLA-A*02:02; [1]): 1.2 nM | IC50 (HLA-A*02:03; [1]): 1.6 nM | IC50 (HLA-A*02:06; [1]): 0.73 nM | IC50 (HLA-A*68:02; [1]): 39 nM | IC50 (HLA-A*02:01; [1]): 0.27 nM

KSGLFQFFV
IC50 (HLA-A*02:02; [2]): 23 nM | IC50 (HLA-A*02:03; [2]): 1560 nM | IC50 (HLA-A*02:06; [2]): 8.1 nM | IC50 (HLA-A*68:02; [2]): 201 nM | IC50 (HLA-A*02:01; [2]): 17 nM

FSTSAYLISI
IC50 (HLA-A*02:02; [3]): 0.68 nM | IC50 (HLA-A*02:03; [3]): 14 nM | IC50 (HLA-A*02:06; [3]): 3.5 nM | IC50 (HLA-A*68:02; [3]): 1.4 nM | IC50 (HLA-A*02:01; [3]): 9 nM

YLYTEYFLFL
IC50 (HLA-A*02:02; [1]): 0.085 nM | IC50 (HLA-A*02:03; [1]): 0.56 nM | IC50 (HLA-A*02:06; [1]): 0.007 nM | IC50 (HLA-A*68:02; [1]): 76 nM | IC50 (HLA-A*02:01; [1]): 0.069 nM

YSMAGNWAKV
IC50 (HLA-A*02:02; [4]): 75 nM | IC50 (HLA-A*02:03; [4]): 17 nM | IC50 (HLA-A*02:06; [4]): 425 nM | IC50 (HLA-A*68:02; [4]): 28 nM | IC50 (HLA-A*02:01; [4]): 175 nM

NITRLEVIGL
IC50 (HLA-A*02:02; [1]): 907 nM | IC50 (HLA-A*02:03; [1]): 95 nM | IC50 (HLA-A*02:06; [1]): 197 nM | IC50 (HLA-A*68:02; [1]): 301 nM | IC50 (HLA-A*02:01; [1]): 424 nM

LVIGFLFLA
IC50 (HLA-A*02:02; source organism: SARS-CoV1): 7.4 nM | IC50 (HLA-A*02:03; source organism: SARS-CoV1): 20 nM | IC50 (HLA-A*02:06; source organism: SARS-CoV1): 0.095 nM | IC50 (HLA-A*68:02; source organism: SARS-CoV1): 26 nM | IC50 (HLA-A*02:01; source organism: SARS-CoV1): 1.4 nM

IIAVFDSKL
IC50 (HLA-A*02:02; [1]): 44 nM | IC50 (HLA-A*02:03; [1]): 107 nM | IC50 (HLA-A*02:06; [1]): 99 nM | IC50 (HLA-A*68:02; [1]): 2320 nM | IC50 (HLA-A*02:01; [1]): 1760 nM

YLYNKYSFKL
IC50 (HLA-A*02:02; [1]): 0.11 nM | IC50 (HLA-A*02:03; [1]): 0.035 nM | IC50 (HLA-A*02:06; [1]): 0.14 nM | IC50 (HLA-A*68:02; [1]): 4.8 nM | IC50 (HLA-A*02:01; [1]): 0.078 nM

KQYDSTDFKM
IC50 (HLA-A*02:02; [1]): 8.4 nM | IC50 (HLA-A*02:03; [1]): 3280 nM | IC50 (HLA-A*02:06; [1]): 107 nM | IC50 (HLA-A*68:02; [1]): 3540 nM | IC50 (HLA-A*02:01; [1]): 309 nM

PASISSVLT
IC50 (HLA-A*02:02; [1]): 1380 nM | IC50 (HLA-A*02:03; [1]): 1360 nM | IC50 (HLA-A*02:06; [1]): 1490 nM | IC50 (HLA-A*68:02; [1]): 1490 nM | IC50 (HLA-A*02:01; [1]): 1200 nM

TIAGGVCYYL
IC50 (HLA-A*02:02; [1]): 0.036 nM | IC50 (HLA-A*02:03; [1]): 34 nM | IC50 (HLA-A*02:06; [1]): 4 nM | IC50 (HLA-A*68:02; [1]): 0.13 nM | IC50 (HLA-A*02:01; [1]): 0.24 nM

ELAYYNSCM
IC50 (HLA-A*02:02; [1]): 129 nM | IC50 (HLA-A*02:03; [1]): 136 nM | IC50 (HLA-A*02:06; [1]): 3580 nM | IC50 (HLA-A*68:02; [1]): 278 nM | IC50 (HLA-A*02:01; [1]): 4370 nM

ALKAYFTAKI
IC50 (HLA-A*02:02; [1]): 194 nM | IC50 (HLA-A*02:03; [1]): 77 nM | IC50 (HLA-A*02:06; [1]): 2780 nM | IC50 (HLA-A*68:02; [1]): 4110 nM | IC50 (HLA-A*02:01; [1]): 1600 nM

YLGPRVCWL
IC50 (HLA-A*02:02; [1]): 0.9 nM | IC50 (HLA-A*02:03; [1]): 3.4 nM | IC50 (HLA-A*02:06; [1]): 23 nM | IC50 (HLA-A*68:02; [1]): 514 nM | IC50 (HLA-A*02:01; [1]): 2.2 nM

TIAVSVYGA
IC50 (HLA-A*02:02; [1]): 25 nM | IC50 (HLA-A*02:03; [1]): 9.9 nM | IC50 (HLA-A*02:06; [1]): 99 nM | IC50 (HLA-A*68:02; [1]): 32 nM | IC50 (HLA-A*02:01; [1]): 104 nM

ILLILSCIFA
IC50 (HLA-A*02:02; [1]): 448 nM | IC50 (HLA-A*02:03; [1]): 307 nM | IC50 (HLA-A*02:06; [1]): 492 nM | IC50 (HLA-A*68:02; [1]): 2750 nM | IC50 (HLA-A*02:01; [1]): 21 nM

SLVITYCLV
IC50 (HLA-A*02:02; [1]): 1690 nM | IC50 (HLA-A*02:03; [1]): 201 nM | IC50 (HLA-A*02:06; [1]): 270 nM | IC50 (HLA-A*68:02; [1]): 1400 nM | IC50 (HLA-A*02:01; [1]): 174 nM

ALMIAAQVVV
IC50 (HLA-A*02:02; [4]): 50 nM | IC50 (HLA-A*02:03; [4]): 71 nM | IC50 (HLA-A*02:06; [4]): 614 nM | IC50 (HLA-A*68:02; [4]): 1420 nM | IC50 (HLA-A*02:01; [4]): 129 nM

VISVIFYFI
IC50 (HLA-A*02:02; [1]): 1.4 nM | IC50 (HLA-A*02:03; [1]): 729 nM | IC50 (HLA-A*02:06; [1]): 497 nM | IC50 (HLA-A*68:02; [1]): 7.6 nM | IC50 (HLA-A*02:01; [1]): 331 nM

TSISGVLWTV
IC50 (HLA-A*02:02; [4]): 8.1 nM | IC50 (HLA-A*02:03; [4]): 27 nM | IC50 (HLA-A*02:06; [4]): 82 nM | IC50 (HLA-A*68:02; [4]): 2.2 nM | IC50 (HLA-A*02:01; [4]): 26 nM

NVSGVPHSV
IC50 (HLA-A*02:02; [1]): 825 nM | IC50 (HLA-A*02:03; [1]): 24 nM | IC50 (HLA-A*02:06; [1]): 278 nM | IC50 (HLA-A*68:02; [1]): 2.8 nM | IC50 (HLA-A*02:01; [1]): 592 nM

ILATLNTLI
IC50 (HLA-A*02:02; [1]): 0.41 nM | IC50 (HLA-A*02:03; [1]): 0.23 nM | IC50 (HLA-A*02:06; [1]): 40 nM | IC50 (HLA-A*68:02; [1]): 2310 nM | IC50 (HLA-A*02:01; [1]): 15 nM

YVGDTSMMVI
IC50 (HLA-A*02:02; [1]): 408 nM | IC50 (HLA-A*02:03; [1]): 220 nM | IC50 (HLA-A*02:06; [1]): 324 nM | IC50 (HLA-A*68:02; [1]): 72 nM | IC50 (HLA-A*02:01; [1]): 803 nM

AAAATCALV
IC50 (HLA-A*02:02; [1]): 15 nM | IC50 (HLA-A*02:03; [1]): 9.1 nM | IC50 (HLA-A*02:06; [1]): 12 nM | IC50 (HLA-A*68:02; [1]): 12 nM | IC50 (HLA-A*02:01; [1]): 41 nM
